# Measurements reported in article PMC12748588, “Cryo-EM structures of plant Augmin reveal coiled-coil assembly, antiparallel dimerization, and NEDD1 binding” (Nature Communications, 2025).
# Assays:
# Assay in all cases: SEC-MALS + other: mass photometry; co-expressed assemblies purified by Ni-IDA (AUG5 His tag), Q-FF and gel filtration; subunits confirmed by SDS-PAGE and mass spectrometry; SEC-MALS on Superdex 200 Increase 10/300, 200 µL at 1 mg/mL, 50 mM HEPES pH 7.5, 200 mM KCl, 1 mM MgCl2, 1 mM EGTA
# [1] = molecular target: AUG5 with C-terminal 8xHis tag (subunit of the hetero-octamer) (A. thaliana) (UniProt Q9FMB4)
# [2] = molecular target: T1, AUG5 with C-terminal 8xHis tag (subunit of the hetero-octamer) (A. thaliana, UniProt Q9FMB4 1-796); settings: both partners purified
# T1 construct: AUGMIN subunit 5 (AUG5), A. thaliana; subunit ORF in pET3a, assembled into the eight-subunit polycistronic vector; Subunit of m1; the assembly was captured on Ni-IDA by this chain; also called AUG5 (His); not shown: His8, C-terminal, kept
# T1 sequence (looked up): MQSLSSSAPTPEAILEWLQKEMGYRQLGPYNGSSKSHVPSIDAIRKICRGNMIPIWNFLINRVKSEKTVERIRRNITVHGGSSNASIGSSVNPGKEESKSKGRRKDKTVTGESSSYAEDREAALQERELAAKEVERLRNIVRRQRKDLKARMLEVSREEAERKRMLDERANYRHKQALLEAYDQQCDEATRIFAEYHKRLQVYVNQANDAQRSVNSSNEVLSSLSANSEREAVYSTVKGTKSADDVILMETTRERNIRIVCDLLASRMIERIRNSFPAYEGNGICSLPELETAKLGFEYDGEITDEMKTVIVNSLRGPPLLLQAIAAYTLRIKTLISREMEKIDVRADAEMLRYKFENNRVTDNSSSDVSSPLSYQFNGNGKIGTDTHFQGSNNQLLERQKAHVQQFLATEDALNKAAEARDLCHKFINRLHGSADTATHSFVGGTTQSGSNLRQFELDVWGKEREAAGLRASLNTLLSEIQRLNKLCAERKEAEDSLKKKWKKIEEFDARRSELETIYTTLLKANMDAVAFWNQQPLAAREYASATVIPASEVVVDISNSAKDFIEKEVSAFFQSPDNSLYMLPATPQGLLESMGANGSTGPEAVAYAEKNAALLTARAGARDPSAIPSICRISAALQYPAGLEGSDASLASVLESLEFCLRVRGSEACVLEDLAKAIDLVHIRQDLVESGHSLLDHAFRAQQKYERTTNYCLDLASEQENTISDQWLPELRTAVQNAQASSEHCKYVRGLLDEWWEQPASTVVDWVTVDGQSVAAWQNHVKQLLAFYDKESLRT
# [3] = molecular target: T2, AUG5 with C-terminal GFP and His tags (subunit of the hetero-tetramer) (A. thaliana, UniProt Q9FMB4 1-796); settings: both partners purified
# T2 construct: AUGMIN subunit 5 (AUG5), A. thaliana; subunit ORF in the four-subunit polycistronic vector; Subunit of m2; source: E. coli SoluBL21, co-expressed with AUG1, AUG3 and AUG4, purified as part of the assembly (Ni-IDA, Q-FF, Superdex 200); not shown: His tag, C-terminal, kept
# T2 sequence (looked up): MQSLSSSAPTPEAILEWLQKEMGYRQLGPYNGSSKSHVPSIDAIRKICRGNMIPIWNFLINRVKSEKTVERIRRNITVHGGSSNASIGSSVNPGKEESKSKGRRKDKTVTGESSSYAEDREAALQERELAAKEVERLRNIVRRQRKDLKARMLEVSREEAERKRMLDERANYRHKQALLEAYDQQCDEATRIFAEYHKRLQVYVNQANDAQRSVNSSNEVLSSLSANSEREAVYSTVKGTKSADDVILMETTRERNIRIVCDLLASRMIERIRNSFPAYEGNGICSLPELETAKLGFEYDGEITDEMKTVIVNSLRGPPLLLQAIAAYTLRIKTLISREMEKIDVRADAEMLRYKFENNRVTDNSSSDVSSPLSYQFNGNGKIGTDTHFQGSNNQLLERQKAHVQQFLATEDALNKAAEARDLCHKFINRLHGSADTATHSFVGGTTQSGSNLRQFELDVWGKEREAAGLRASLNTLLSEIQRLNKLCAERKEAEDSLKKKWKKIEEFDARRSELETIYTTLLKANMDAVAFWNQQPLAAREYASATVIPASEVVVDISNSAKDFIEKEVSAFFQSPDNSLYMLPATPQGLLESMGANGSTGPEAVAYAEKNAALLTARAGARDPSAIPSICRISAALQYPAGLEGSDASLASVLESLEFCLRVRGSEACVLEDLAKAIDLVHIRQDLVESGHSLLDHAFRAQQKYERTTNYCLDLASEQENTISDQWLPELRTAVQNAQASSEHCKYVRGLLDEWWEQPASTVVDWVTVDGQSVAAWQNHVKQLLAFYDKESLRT
# Chain of AUG8 C-terminal region (residues 383-644) (Q9SUH5 383-644): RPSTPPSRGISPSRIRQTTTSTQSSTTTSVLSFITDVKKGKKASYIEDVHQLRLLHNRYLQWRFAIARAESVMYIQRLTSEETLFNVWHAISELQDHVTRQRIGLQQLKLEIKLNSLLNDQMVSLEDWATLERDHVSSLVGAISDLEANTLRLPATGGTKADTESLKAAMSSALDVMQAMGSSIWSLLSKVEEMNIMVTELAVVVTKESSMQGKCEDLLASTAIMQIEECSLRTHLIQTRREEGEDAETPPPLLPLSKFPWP
Molecule,stoichiometry N (subunit per assembly) [1],stoichiometry N [2] [subunit per assembly],stoichiometry N [3] [subunit per assembly]
AUG8 C-terminal region (residues 383-644) (from UniProt Q9SUH5 383-644) (domain or fragment),1,,
"AUG6 with C-terminal StrepII tag (natural protein, A. thaliana, UniProt Q94BP7 1-741, looked up, AUGMIN subunit 6 (AUG6), A. thaliana; ORF in pET3a, assembled into a polycistronic vector; N-terminal CH domain; its C-terminal region is prone to degradation; Subunit of m1; also called AUG6-StrepII; source: E. coli SoluBL21, co-expressed with the other Augmin subunits, purified as part of the assembly) MTMDREKERELELESAMYTNCLLLGLDPNVIGLGASNGTPRVGLFRHSNPKLGEQLLYFILSSLRGPAQSSKDFDKVWPIFDSAQSRDFRKVVQAIISELESQGALPRSNSRVSSLATCCGPRFVELLWQLSLHALREVHRRTFPADVASNPLPSSLTDVSFSHAATLLPVTKARIVLERRRFLKNAETAVQRQAMWSNLAHEMTAEFRGLCAEEAYLQQELEKLNDLRNKVKQEGEVWDDLVSSSSQNSHLVSKATRLWDSIMARKGQHEVLASGPIEDLIAHREHRYRISGSALLAAMDQSSQVPRAELLSAHSDDSASLADDKELSDGSYTNMHDHSLVDSFETASSQASDETLSRVDDRGGKINQTVDVAEVIRRWTHALQRIHKQSLLLAKANDGDGPDILRTASDGGTSGHVESLAATLTEHQQHLASFQVLINQLKEVSPAIQKSISECTEMVNSLPPTLPPVTRSNGQASSLLQSQGSGRIMEGVSNDVAELTSTMSNVQLEKVSASPTLKLPQLFSSTPTSSGKGGNGQKRQTMASQVNKMESLSEKNSTDQALSNARPDNLPTDTSSSFVHNLKKSVREAALLIPSSAGSSRDSQSDEGSEHYFVPLSATGFSRFPSETKALPLRGSRALTSLSEPSFLEPNVPDSFAPSKYSDIPDTYDDLDSFKDYDNGNGFLSVAGSNSVASDAQQSFYDIDDQVFSPPLLMDSSLLSDAYEDLLAPLSETEAALMEH",,1,
"AUG4 (A. thaliana Augmin subunit 4) (natural protein, UniProt Q8GYM3 1-423, looked up, AUGMIN subunit 4 (AUG4), A. thaliana; subunit ORF in pET3a, assembled into polycistronic vectors; Subunit of m1 and m2; source: E. coli SoluBL21, co-expressed with the other Augmin subunits, purified as part of the assembly) MVKALQGAAQNLPADVNQLIDQLERHCLAPDGSLVTKSVYSDLQLAREEMSRERLRYLEAMAIYCEAVAMVEEYQQAISVANHGGIRDVQGLYPQLGLKNSPQVYETLEHRLVVAEAAQKLRLPLISDGGEIHEEEIEKWSILSRSSLDSASTSFTISSTSNSVNYANSSANSVAGGISLSAVDTDVVGGVPNRFLGITPAYLSYVQLQNTISMDMADYQMFLAREIEGRLKEKCDKLADAIVDDTDSSTGNRNSSARLPERVKFIIEEIERDEAALREDLYSADRKFAEYYNVLEQILGVLIKLVKDLKLEHQHKYNEMQKTWLCKRCETMNAKLRVLENVLLLETYTPDSISALHNIRNYLVEATEEASAAYNKAVTRLREYQGVDPHFDTIARQYHDIVKKLENMQWTIHQVEMDLKSHD",,1,1
"AUG1 (A. thaliana Augmin subunit 1) (natural protein, UniProt F4IK01 1-299, looked up, AUGMIN subunit 1 (AUG1), A. thaliana; subunit ORF in pET3a, assembled into polycistronic vectors; Subunit of m1 and m2; source: E. coli SoluBL21, co-expressed with the other Augmin subunits, purified as part of the assembly) MSDVTGDLAAVSEAKGGSDAARISEVKAWLTSQFEAVGKEVPNFEYTHRSITHLYNLATASQAKSQAATIVANDFRLKASEYRAQAARIREILESAGMSQESLPSNVVSSAQVLANVANLLNIRDTELSSFLVAMGDISLRKTGVEEKRAKAQKESNALLDYTRKAIQRLTYLKKILAQLEDDVVPCESQMENWKTNLEVMAVKEEQYIQQYKKYEQMLLNRVGYTPKISHRELVEMAEHRKELDKMTKPVLDTLRSYQDLPPDKALAALAIEDKKRQFTAAEKYLEEVLQSALETNDE",,1,1
"AUG7 (A. thaliana Augmin subunit 7) (natural protein, UniProt Q0WTP1 1-329, looked up, AUGMIN subunit 7 (AUG7), A. thaliana; codon-optimised ORF in pET3a, assembled into a polycistronic vector; N-terminal CH domain; Subunit of m1; source: E. coli SoluBL21, co-expressed with the other Augmin subunits, purified as part of the assembly) MAAKQMEEIQKKLRLLSYPRANAPAQSLLFAGMERYALLEWLFFKLLGDKSPFSQQNLQGDAGVRDEETVRIQYLAEIAKFLGITPTVDIEAIQGHGTYEDRMEMLRNIVDLVEASLFSDNQEWSIDEQVAKDIQLIDAIAERQSLIFSEECKLFPADVQIQSIYPLPDVSELETKLSEQAKILSNLQQKVDDLAAKHAYNPDEEYTEVESQLRARLESFLETARAFNTIYTKEIRPWTHMMEVPQLHGFGPAANRLLEAYNMLLKFLGNLKNLRDSHAALSIGSSGTVAGEPSSVTRIVSDCEAALTVLNRDLGILSASIAREQGERL",,1,
"AUG2 (A. thaliana Augmin subunit 2) (natural protein, UniProt O48767 1-296, looked up, AUGMIN subunit 2 (AUG2), A. thaliana; codon-optimised ORF in pET3a, assembled into a polycistronic vector; Subunit of m1; source: E. coli SoluBL21, co-expressed with the other Augmin subunits, purified as part of the assembly) MSMGGDTTWVGKKPIRRIGGLSDALSIASDLGFAVAPPPSQEELQSFASSNGERGDDLIRVLRELSVVQRKIADLQVELQGRKDDKNVAHLTHVGEMQKKIETLSRITQILKDVIQNKDRIIARLQQPYSLDCIPVEAEYQKQFSELLMKAASDYGALTASVSDFQWSQNFKEPPSVWGEMLRPIPVALASCTRFFEAMSAMRESFATLQELRVGNSAVSLPTTPGGNEMTHRDSDCVTPPQGRIESSFDDLAVHKTRRQNNDQNEEEEEEEEEEDGNNNGNRRLSWPPSVKKSSV",,1,
"AUG3 (A. thaliana Augmin subunit 3) (natural protein, UniProt Q0WQE7 1-617, looked up, AUGMIN subunit 3 (AUG3), A. thaliana; subunit ORF in pET3a, assembled into polycistronic vectors; Subunit of m1 and m2; source: E. coli SoluBL21, co-expressed with the other Augmin subunits, purified as part of the assembly) MSSARLCSLVAELGYEGAGKLDPDSFEWPFQYDDARPILDWICSSLRPSNVLSLAELSLYEQFQRDGKLLEGDDLDQAYDSISAFSSRRNNQEAVFGAEESIKEVRDATLAHKAEALELQRQLRRLQTQYDLLTGQSSALIQGRRARVAATSAVSGQITAIEDSLSARNLQMNGVLGRLASTSQELAHYHSGEEDGIYLAYSDFHAYLAGDSACTKELNQWFAKQLDTGPYRLVAEEGKSKCSWVSLDDTSNMLRDLEKSQHQRVAELQRLRSIFGTSERQWIEAQVENAKQQAILLTLKSQVTSVEAHIHFDLHSLRRKHADLVEEISTLYQKEEKLLSETIPELCWELAQLQDTYILQGDYDLKVMRQELYISKQKVFINHLVNQLARHQFLKLACQLEKKNMLGAFSLLKVIESELQGYLSATRSRVGRCSALIQAASDVQEQGAVDDRDSFLHGVRDLLSIHSNTQAGLSTYVSAPAIIQQIVALQSDLSSLQSDLENSLPDDRNRCINELCTHIQNLQQLLFASSTTAQPILTPWPLMKELDEMGKINSKLSTAVEEVTLEHRNKREIVKHHAKDVELQRRVFVDFFCNPERLRNQVRELNALVRARQASSS",,1,1
